Experimental data taken from patent US20090202980.

Columns and labels:
[1] = target: T1, amyloid fragment of transthyretin (TTR11)
T1 chain: YTIAALLSPYS

[2] = target: T2, fibrin peptide 85 (FP13), human fibrin α-chain fragment α148-160
T2 chain: KRLEVDIDIKIRS

[3] = target: T3, fibrin peptide 87 (FP10), non-amyloid fragment of human fibrin α-chain(148-157)
T3 chain: KRLEVDIDIK

[4] = target: human amyloid-β peptide Aβ(1-40)
[5] = target: T4, laminin α1-chain(2097-2108) amyloid core peptide (LAM12)
T4 chain: AASIKVAVSADR

[6] = target: T5, mouse non-amyloidogenic IAPP(20-29) core (ΔmIAPP)
T5 chain: SNNLGPVLPP

[7] = target: endostatin (precipitated, cross-β structure-containing)
fibrin peptide 86 (FP12) = target: T6, fibrin peptide 86 (FP12)
T6 chain: KRLEVDIDIKIR

[8] = target: T7, human IAPP amyloid core fragment (ΔhIAPP)
T7 chain: SNNFGAILSS

[9] = target: T8, human islet amyloid polypeptide, full length (fl-hIAPP)
T8 chain: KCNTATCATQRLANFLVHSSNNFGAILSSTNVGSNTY

[10] = target: T9, recombinant human β2-glycoprotein I (expressed in insect cells), P02749
T9 chain: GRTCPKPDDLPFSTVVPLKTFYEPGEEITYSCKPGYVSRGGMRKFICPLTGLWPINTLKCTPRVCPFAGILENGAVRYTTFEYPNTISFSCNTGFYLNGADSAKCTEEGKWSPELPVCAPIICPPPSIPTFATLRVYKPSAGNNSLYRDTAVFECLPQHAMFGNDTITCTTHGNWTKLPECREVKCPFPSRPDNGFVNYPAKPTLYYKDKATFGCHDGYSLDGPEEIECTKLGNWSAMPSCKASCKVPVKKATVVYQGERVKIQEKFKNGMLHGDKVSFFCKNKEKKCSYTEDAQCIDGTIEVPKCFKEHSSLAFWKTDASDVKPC

[11] = target: T10, β2-glycoprotein I purified from fresh human plasma (in solution), P02749
T10 chain: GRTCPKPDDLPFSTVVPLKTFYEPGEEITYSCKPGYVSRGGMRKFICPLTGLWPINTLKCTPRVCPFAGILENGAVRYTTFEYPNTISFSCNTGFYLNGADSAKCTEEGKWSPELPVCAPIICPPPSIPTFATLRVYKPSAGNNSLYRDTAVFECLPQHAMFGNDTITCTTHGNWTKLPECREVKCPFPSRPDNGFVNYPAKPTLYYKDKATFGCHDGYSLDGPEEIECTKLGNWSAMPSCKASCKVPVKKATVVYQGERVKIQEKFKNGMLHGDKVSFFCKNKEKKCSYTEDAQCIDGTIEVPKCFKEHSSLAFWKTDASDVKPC

Protein	auto-activation of factor XII (S-2222 conversion) (Aβ(1-40) E22Q)	auto-activation of factor XII (S-2222 conversion) (FP13 K157G)	factor XII activation (Chromozym PK conversion via kallikrein) [1]	factor XII activation (Chromozym PK conversion via kallikrein) [2]	factor XII activation (Chromozym PK conversion via kallikrein) [3]	factor XII activation (Chromozym PK conversion via kallikrein) [4]	factor XII activation (Chromozym PK conversion via kallikrein) [5]	factor XII activation (Chromozym PK conversion via kallikrein) [6]	tPA-mediated plasmin formation (plasminogen activation assay) [7]	tPA-mediated plasmin formation (plasminogen activation assay) [2]	tPA-mediated plasmin formation (plasminogen activation assay) (fibrin peptide 86 (FP12))	tPA-mediated plasmin formation (plasminogen activation assay) [3]	tPA-mediated plasminogen activation [8]	activation of plasminogen by tPA (S-2251 conversion) [4]	tPA-mediated plasminogen activation [9]	tPA-mediated plasminogen activation [6]	tPA-mediated conversion of plasminogen to plasmin (S-2251 conversion) [10]	tPA-mediated conversion of plasminogen to plasmin (S-2251 conversion) [11]
human factor XII (Hageman factor) (protein) IPPWEAPKEHKYKAEEHTVVLTVTGEPCHFPFQYHRQLYHKCTHKGRPGPQPWCATTPNFDQDQRWGYCLEPKKVKDHCSKHSPCQKGGTCVNMPSGPHCLCPQHLTGNHCQKEKCFEPQLLRFFHKNEIWYRTEQAAVARCQCKGPDAHCQRLASQACRTNPCLHGGRCLEVEGHRLCHCPVGYTGAFCDVDTKASCYDGRGLSYRGLARTTLSGAPCQPWASEATYRNVTAEQARNWGLGGHAFCRNPDNDIRPWCFVLNRDRLSWEYCDLAQCQTPTQAAPPTPVSPRLHVPLMPAQPAPPKPQPTTRTPPQSQTPGALPAKREQPPSLTRNGPLSCGQRLRKSLSSMTRVVGGLVALRGAHPYIAALYWGHSFCAGSLIAPCWVLTAAHCLQDRPAPEDLTVVLGQERRNHSCEPCQTLAVRSYRLHEAFSPVSYQHDLALLRLQEDADGSCALLSPYVQPVCLPSGAARPSETTLCQVAGWGHQFEGAEEYASFLQEAQVPFLSLERCSAPDVHGSSILPGMLCAGFLEGGTDACQGDSGGPLVCEDQAAERRLTLQGIISWGSGCGDRNKPGVYTDVAYYLAWIREHTVS	the potency of the Aβ(1-40) E22Q is somewhat lower	FP13 K157G and Hb-AGE have a potency to induce auto-activation that is similar to the established surface activator DXS500k	cross-β structure-rich peptides LAM12 and TTR11 stimulate factor XII activation, to a similar extent as kaolin	amyloid-like peptide aggregates of FP13 and Aβ stimulate the activation of factor XII	non-amyloid controls FP10 and mIAPP do not activate factor XII	amyloid-like peptide aggregates of FP13 and Aβ stimulate the activation of factor XII	cross-β structure-rich peptides LAM12 and TTR11 stimulate factor XII activation, to a similar extent as kaolin	non-amyloid controls FP10 and mIAPP do not activate factor XII										
recombinant tissue-type plasminogen activator (tPA) (protein) SYQVICRDEKTQMIYQQHQSWLRPVLRSNRVEYCWCNSGRAQCHSVPVKSCSEPRCFNGGTCQQALYFSDFVCQCPEGFAGKCCEIDTRATCYEDQGISYRGTWSTAESGAECTNWNSSALAQKPYSGRRPDAIRLGLGNHNYCRNPDRDSKPWCYVFKAGKYSSEFCSTPACSEGNSDCYFGNGSAYRGTHSLTESGASCLPWNSMILIGKVYTAQNPSAQALGLGKHNYCRNPDGDAKPWCHVLKNRRLTWEYCDVPSCSTCGLRQYSQPQFRIKGGLFADIASHPWQAAIFAKHRRSPGERFLCGGILISSCWILSAAHCFQERFPPHHLTVILGRTYRVVPGEEEQKFEVEKYIVHKEFDDDTYDNDIALLQLKSDSSRCAQESSVVRTVCLPPADLQLPDWTECELSGYGKHEALSPFYSERLKEAHVRLYPSSRCTSQHLLNRTVTDNMLCAGDTRSGGPQANLHDACQGDSGGPLVCLNDGRMTLVGIISWGLGCGQKDVPGVYTKVTNYLDWIRDNMRP									stimulating activity of cross-β structure-containing endostatin on tPA-mediated plasmin formation	peptides 85 and 86, both containing a cross-β structure, do stimulate the formation of plasmin by tPA	peptides 85 and 86, both containing a cross-β structure, do stimulate the formation of plasmin by tPA	peptide 87, which lacks a cross-β structure, does not	Both full-length (fl-hIAPP) and truncated amyloid core (Δ-hIAPP), but not mouse IAPP (Δ-mIAPP), stimulate tPA-mediated plasminogen activation	Aβ potently stimulates the activation of plasminogen by tPA	Both full-length (fl-hIAPP) and truncated amyloid core (Δ-hIAPP), but not mouse IAPP (Δ-mIAPP), stimulate tPA-mediated plasminogen activation	but not mouse IAPP (Δ-mIAPP)	Recombinant β2gpi and not β2gpi purified from fresh plasma, stimulates effectively the tPA-mediated conversion of plasminogen to plasmin	Recombinant β2gpi and not β2gpi purified from fresh plasma, stimulates effectively the tPA-mediated conversion of plasminogen to plasmin
